Reference: publication PMC10240212 (EMBO Reports, 2023)

Assays:
mass photometry = target: the molecule itself; test: mass photometry
SEC = target: the molecule itself; test: SEC

B1: Teneurin‐m superfold (Ten‐m^SF), residues 779–2731 (domain or fragment)
chain: LNCGDSKDNDKDGLVDCEDPECCASHVCKTSQLCVSAPKPIDVLLRKQPPAITASFFERMKFLIDESSLQNYAKLETFNESRSAVIRGRVVTSLGMGLVGVRVSTTTLLEGFTLTRDDGWFDLMVNGGGAVTLQFGRAPFRPQSRIVQVPWNEVVIIDLVVMSMSEEKGLAVTTTHTCFAHDYDLMKPVVLASWKHGFQGACPDRSAILAESQVIQESLQIPGTGLNLVYHSSRAAGYLSTIKLQLTPDVIPTSLHLIHLRITIEGILFERIFEADPGIKFTYAWNRLNIYRQRVYGVTTAVVKVGYQYTDCTDIVWDIQTTKLSGHDMSISEVGGWNLDIHHRYNFHEGILQKGDGSNIYLRNKPRIILTTMGDGHQRPLECPDCDGQATKQRLLAPVALAAAPDGSLFVGDFNYIRRIMTDGSIRTVVKLNATRVSYRYHMALSPLDGTLYVSDPESHQIIRVRDTNDYSQPELNWEAVVGSGERCLPGDEAHCGDGALAKDAKLAYPKGIAISSDNILYFADGTNIRMVDRDGIVSTLIGNHMHKSHWKPIPCEGTLKLEEMHLRWPTELAVSPMDNTLHIIDDHMILRMTPDGRVRVISGRPLHCATASTAYDTDLATHATLVMPQSIAFGPLGELYVAESDSQRINRVRVIGTDGRIAPFAGAESKCNCLERGCDCFEAEHYLATSAKFNTIAALAVTPDSHVHIADQANYRIRSVMSSIPEASPSREYEIYAPDMQEIYIFNRFGQHVSTRNILTGETTYVFTYNVNTSNGKLSTVTDAAGNKVFLLRDYTSQVNSIENTKGQKCRLRMTRMKMLHELSTPDNYNVTYEYHGPTGLLRTKLDSTGRSYVYNYDEFGRLTSAVTPTGRVIELSFDLSVKGAQVKVSENAQKEMSLLIQGATVIVRNGAAESRTTVDMDGSTTSITPWGHNLQMEVAPYTILAEQSPLLGESYPVPAKQRTEIAGDLANRFEWRYFVRRQQPLQAGKQSKGPPRPVTEVGRKLRVNGDNVLTLEYDRETQSVVVMVDDKQELLNVTYDRTSRPISFRPQSGDYADVDLEYDRFGRLVSWKWGVLQEAYSFDRNGRLNEIKYGDGSTMVYAFKDMFGSLPLKVTTPRRSDYLLQYDDAGALQSLTTPRGHIHAFSLQTSLGFFKYQYYSPINRHPFEILYNDEGQILAKIHPHQSGKVAFVHDTAGRLETILAGLSSTHYTYQDTTSLVKSVEVQEPGFELRREFKYHAGILKDEKLRFGSKNSLASARYKYAYDGNARLSGIEMAIDDKELPTTRYKYSQNLGQLEVVQDLKITRNAFNRTVIQDSAKQFFAIVDYDQHGRVKSVLMNVKNIDVFRLELDYDLRNRIKSQKTTFGRSTAFDKINYNADGHVVEVLGTNNWKYLFDENGNTVGVVDQGEKFNLGYDIGDRVIKVGDVEFNNYDARGFVVKRGEQKYRYNNRGQLIHSFERERFQSWYYYDDRSRLVAWHDNKGNTTQYYYANPRTPHLVTHVHFPKISRTMKLFYDDRDMLIALEHEDQRYYVATDQNGSPLAFFDQNGSIVKEMKRTPFGRIIKDTKPEFFVPIDFHGGLIDPHTKLVYTEQRQYDPHVGQWMTPLWETLATEMSHPTDVFIYRYHNNDPINPNKPQNYMIDLDSWLQLFGYDLNNMQSSRYTKLAQYTPQASIKSNTLAPDFGVISGLECIVEKTSEKFSDFDFVPKPLLKMEPKMRNLLPRVSYRRGVFGEGVLLSRIGGRALVSVVDGSNSVVQDVVSSVFNNSYFLDLHFSIHDQDVFYFVKDNVLKLRDDNEELRRLGGMFNISTHEISDHGGSAAKELRLHGPDAVVIIKYGVDPEQERHRILKHAHKRAVERAWELEKQLVAAGFQGRGDWTEEEKEELVQHGDVDGWNGIDIHSIHKYPQLADDPGNVAFQRDAKRKRRKTGSSHRSASNRRQLKFGELSA
In the case of B1, the “stoichiometry N” value (mass photometry) is reported as about 4 and the “stoichiometry N” value (SEC) is reported as 2.
